Like-named read-outs stand apart in the source and are kept apart here.

For test [1], the target named is human T cells (expressing Sirpγ) (human) (UniProt Q9P1W8). The test can be described thus: flow cytometry on human PBMC T cells, 10 µg/mL. In general terms: A flow cytometer gives signals particle by particle.
For test [2], the target named is human Sirpα-V1-hFc (human) (UniProt P78324). The test can be described thus: blocking ELISA: hSirpα (dimer) to hCD47. A general note: An ELISA detects its analyte on a solid surface through an enzyme-linked reagent.
The next test addresses human Sirpβ-his (human) (UniProt O00241). In words: ELISA.
Test [3] concerns the target human Sirpα-V1 recombinant protein (human) (UniProt P78324). The test can be described thus: ELISA.
The target in test [4] is human Sirpα-V1-hFc (human) (UniProt P78324). In words: blocking ELISA: hSirpα (dimer) to CD47.
In test [5] the target is human Sirpα-V1 on CHO-K1 hSirpα+ cells (human) (UniProt P78324). In words: cell ELISA on CHO-K1 hSirpα+ cells.
In test [6] the target is human Sirpα-V1 recombinant protein (human) (UniProt P78324). In words: ELISA. This is another data set of the same source.
The target of test [7] is human Sirpα-V1 on CHO-K1 hSirpα+ cells (human) (UniProt P78324). The test can be described thus: cell ELISA on hSirpα-v1+ cell strain.
In test [8] the target is human Sirpα-V1-his (human) (UniProt P78324). The test can be described thus: blocking ELISA: hSirpα to hCD47 (dimer).
The target in test [9] is human Sirpα-V1 recombinant protein (human) (UniProt P78324). In words: ELISA. The source holds these as a separate data set.
In test [10] the target is human Sirpα-V1-his (human) (UniProt P78324). In words: blocking ELISA: hSirpα to CD47 (dimer).
Test [11] deals with human T cells (expressing Sirpγ) (human) (UniProt Q9P1W8). In words: flow cytometry on human PBMC T cells.

“positive control antibody 1 (Ref1, OSE-172)” returned a proportion of cells with fluorescence intensity above 10^3 in [1] of 0.49%. Further, the IC50 (in general, the concentration needed to halve the response being measured) amounted to 4.55 nM in test [2], 3.74 nM in [4], 4.58 nM in test [8] and 4.16 nM in test [10]. Further, the EC50 (as a rule, the midpoint of the concentration-response curve) with human Sirpβ-his (human) is 0.126 nM; in test [3], 0.057 nM; in test [5] it was 0.37 nM; in [6], 0.17 nM; in test [7] it was 0.084 nM; in test [9], 0.072 nM. For the same substance, in test [11], the T-cell binding activity (% binding) was 1.79%.

The values above are taken from patent publication US12577303B2.
